The record followed here is the Human Domainome abundance scans (Beltran et al. 2025).

± gives the uncertainty stated by the source.

B1: GA-binding protein alpha chain, residues 172 to 250; numbered along this chain, Q06546 (parent)
chain: GYRKEQERLGIPYDPIQWSTDQVLHWVVWVMKEFSMTDIDLTTLNISGRELCSLNQEDFFQRVPRGEILWSHLELLRKY

The series covers variants of B1. In words: abundance fitness (aPCA) (normalised: wild type 0, dead -1); higher = more abundant; growth selection in yeast, the domain comes from the species named. The settings on record: Homo sapiens.
For the variant GYRKEQERLGIPYDPIQWSTDQVLHWVVWVMKEFSMTDIDLTTLNISGRELCSLNQEDFFQRVFRGEILWSHLELLRKY [P64F], the abundance fitness is -0.611 ± 0.23.

As for GYRKEQERLGIPYDPIQWSTDQVLHWVVWVMKEFSMTDIDLTTLNISGRELCSLNQEDFFQRVNRGEILWSHLELLRKY [P64N], the abundance fitness was -0.177 ± 0.16. Regarding GYRKEQERLGIPYDPIQWSTDQVLHWVVWVMKEFSMTDIDLTTLNISGRELCSLNQEDFFQRVQRGEILWSHLELLRKY [P64Q], the abundance fitness is -0.266 ± 0.05.

Regarding GYRKEQERLGIPYDPIQWSTDQVLHWVVWVMKEFSMTDIDLTTLNISGRELCSLNQEDFFQRVGRGEILWSHLELLRKY [P64G], the abundance fitness was -0.158 ± 0.034. As for GYRKEQERLGIPYDPIQWSTDQVLHWVVWVMKEFSMTDIDLTTLNISGRELCSLNQEDFFQRVCRGEILWSHLELLRKY [P64C], the abundance fitness is -0.288 ± 0.098. As to GYRKEQERLGIPYDPIQWSTDQVLHWVVWVMKEFSMTDIDLTTLNISGRELCSLNQEDFFQRVERGEILWSHLELLRKY [P64E], the abundance fitness is -0.23 ± 0.064.

Consider GYRKEQERLGIPYDPIQWSTDQVLHWVVWVMKEFSMTDIDLTTLNISGRELCSLNQEDFFQRVDRGEILWSHLELLRKY [P64D], for which the abundance fitness is -0.738 ± 0.27. With GYRKEQERLGIPYDPIQWSTDQVLHWVVWVMKEFSMTDIDLTTLNISGRELCSLNQEDFFQRVARGEILWSHLELLRKY [P64A], the abundance fitness is -0.295 ± 0.054. As for GYRKEQERLGIPYDPIQWSTDQVLHWVVWVMKEFSMTDIDLTTLNISGRELCSLNQEDFFQRVVRGEILWSHLELLRKY [P64V], the abundance fitness is -0.406 ± 0.039.

Turning to GYRKEQERLGIPYDPIQWSTDQVLHWVVWVMKEFSMTDIDLTTLNISGRELCSLNQEDFFQRVSRGEILWSHLELLRKY [P64S], the abundance fitness was -0.219 ± 0.041. For the variant GYRKEQERLGIPYDPIQWSTDQVLHWVVWVMKEFSMTDIDLTTLNISGRELCSLNQEDFFQRVYRGEILWSHLELLRKY [P64Y], the abundance fitness is -0.744 ± 0.13. Take GYRKEQERLGIPYDPIQWSTDQVLHWVVWVMKEFSMTDIDLTTLNISGRELCSLNQEDFFQRVTRGEILWSHLELLRKY [P64T]: the abundance fitness was -0.333 ± 0.044. The result for GYRKEQERLGIPYDPIQWSTDQVLHWVVWVMKEFSMTDIDLTTLNISGRELCSLNQEDFFQRVKRGEILWSHLELLRKY [P64K] reads -0.159 ± 0.057; that for GYRKEQERLGIPYDPIQWSTDQVLHWVVWVMKEFSMTDIDLTTLNISGRELCSLNQEDFFQRVWRGEILWSHLELLRKY [P64W], -0.67 ± 0.062; that for GYRKEQERLGIPYDPIQWSTDQVLHWVVWVMKEFSMTDIDLTTLNISGRELCSLNQEDFFQRVMRGEILWSHLELLRKY [P64M], -0.952 ± 0.33. The result for GYRKEQERLGIPYDPIQWSTDQVLHWVVWVMKEFSMTDIDLTTLNISGRELCSLNQEDFFQRVIRGEILWSHLELLRKY [P64I] reads -0.554 ± 0.15; that for GYRKEQERLGIPYDPIQWSTDQVLHWVVWVMKEFSMTDIDLTTLNISGRELCSLNQEDFFQRVPLGEILWSHLELLRKY [R65L], -0.141 ± 0.037. As for GYRKEQERLGIPYDPIQWSTDQVLHWVVWVMKEFSMTDIDLTTLNISGRELCSLNQEDFFQRVPKGEILWSHLELLRKY [R65K], the abundance fitness is -0.013 ± 0.078. With GYRKEQERLGIPYDPIQWSTDQVLHWVVWVMKEFSMTDIDLTTLNISGRELCSLNQEDFFQRVPDGEILWSHLELLRKY [R65D], the abundance fitness worked out at 0.084 ± 0.056. Consider GYRKEQERLGIPYDPIQWSTDQVLHWVVWVMKEFSMTDIDLTTLNISGRELCSLNQEDFFQRVPGGEILWSHLELLRKY [R65G], for which the abundance fitness is 0.007 ± 0.026. The result for GYRKEQERLGIPYDPIQWSTDQVLHWVVWVMKEFSMTDIDLTTLNISGRELCSLNQEDFFQRVPEGEILWSHLELLRKY [R65E] reads 0.033 ± 0.055; that for GYRKEQERLGIPYDPIQWSTDQVLHWVVWVMKEFSMTDIDLTTLNISGRELCSLNQEDFFQRVPHGEILWSHLELLRKY [R65H], -0.111 ± 0.071; that for GYRKEQERLGIPYDPIQWSTDQVLHWVVWVMKEFSMTDIDLTTLNISGRELCSLNQEDFFQRVPCGEILWSHLELLRKY [R65C], -0.004 ± 0.081. For GYRKEQERLGIPYDPIQWSTDQVLHWVVWVMKEFSMTDIDLTTLNISGRELCSLNQEDFFQRVPAGEILWSHLELLRKY [R65A], the abundance fitness was -0.003 ± 0.04. For GYRKEQERLGIPYDPIQWSTDQVLHWVVWVMKEFSMTDIDLTTLNISGRELCSLNQEDFFQRVPFGEILWSHLELLRKY [R65F], the abundance fitness is -0.177 ± 0.082.

Consider GYRKEQERLGIPYDPIQWSTDQVLHWVVWVMKEFSMTDIDLTTLNISGRELCSLNQEDFFQRKPRGEILWSHLELLRKY [V63K], for which the abundance fitness was -0.864 ± 0.22.

GYRKEQERLGIPYDPIQWSTDQVLHWVVWVMKEFSMTDIDLTTLNISGRELCSLNQEDFFQRLPRGEILWSHLELLRKY [V63L]: the abundance fitness is -0.073 ± 0.029. For the variant GYRKEQERLGIPYDPIQWSTDQVLHWVVWVMKEFSMTDIDLTTLNISGRELCSLNQEDFFQRPPRGEILWSHLELLRKY [V63P], the abundance fitness was -0.667 ± 0.12. Regarding GYRKEQERLGIPYDPIQWSTDQVLHWVVWVMKEFSMTDIDLTTLNISGRELCSLNQEDFFQRMPRGEILWSHLELLRKY [V63M], the abundance fitness was -0.113 ± 0.073. Turning to GYRKEQERLGIPYDPIQWSTDQVLHWVVWVMKEFSMTDIDLTTLNISGRELCSLNQEDFFQRYPRGEILWSHLELLRKY [V63Y], the abundance fitness is -0.221 ± 0.1. In the case of GYRKEQERLGIPYDPIQWSTDQVLHWVVWVMKEFSMTDIDLTTLNISGRELCSLNQEDFFQRNPRGEILWSHLELLRKY [V63N], the abundance fitness is -0.384 ± 0.12.

On to GYRKEQERLGIPYDPIQWSTDQVLHWVVWVMKEFSMTDIDLTTLNISGRELCSLNQEDFFQRTPRGEILWSHLELLRKY [V63T], for which the abundance fitness was -0.172 ± 0.072. As to GYRKEQERLGIPYDPIQWSTDQVLHWVVWVMKEFSMTDIDLTTLNISGRELCSLNQEDFFQRRPRGEILWSHLELLRKY [V63R], the abundance fitness was -1.06 ± 0.11. For GYRKEQERLGIPYDPIQWSTDQVLHWVVWVMKEFSMTDIDLTTLNISGRELCSLNQEDFFQRWPRGEILWSHLELLRKY [V63W], the abundance fitness is -0.042 ± 0.041.

As for GYRKEQERLGIPYDPIQWSTDQVLHWVVWVMKEFSMTDIDLTTLNISGRELCSLNQEDFFQRQPRGEILWSHLELLRKY [V63Q], the abundance fitness was -0.235 ± 0.068.
